{"source": "the RNAGym collection of RNA variant scans (doi:10.7554/elife.80360)", "parents": {"B1": {"name": "Hammerhead Ribozyme (parent)", "chain": "ACCGGAUGUGCUUUCCGGUCUGAUGAGUCCGUGAGGACGAAACAG"}}, "data": [{"variants_of": "B1", "test": "self-cleavage, relative activity (ratio to wild type); higher = more cleavage; co-transcriptional", "values": [{"variant": "AACGGAUGUGCUUUCCGGUCUGAUGAGUCCGUGAGGACUAAACAG", "note": "[C2A G39U]", "self-cleavage": 0.327}, {"variant": "AACGGAUGUGCUUUCCGGUCUGAUGAGUCCGUGAGGACAAAACAG", "note": "[C2A G39A]", "self-cleavage": 0.319}, {"variant": "AACGGAUGUGCUUUCCGGUCUGAUGAGUCCGUGAGGACCAAACAG", "note": "[C2A G39C]", "self-cleavage": 0.305}, {"variant": "AACGGAUGUGCUUUCCGGUCUGAUGAGUCCAUGAGGACGAAACAG", "note": "[C2A G31A]", "self-cleavage": 0.969}, {"variant": "AACGGAUGUGCUUUCCGGUCUGAUGAGUCCUUGAGGACGAAACAG", "note": "[C2A G31U]", "self-cleavage": 0.828}, {"variant": "AACGGAUGUGCUUUCCGGUCUGAUGAGUCCCUGAGGACGAAACAG", "note": "[C2A G31C]", "self-cleavage": 0.66}, {"variant": "AACGGAUGUGCUUUCCGGUCUGAUGAGUCCGUUAGGACGAAACAG", "note": "[C2A G33U]", "self-cleavage": 0.858}, {"variant": "AACGGAUGUGCUUUCCGGUCUGAUGAGUCCGUAAGGACGAAACAG", "note": "[C2A G33A]", "self-cleavage": 0.958}, {"variant": "AACGGAUGUGCUUUCCGGUCUGAUGAGUCCGUCAGGACGAAACAG", "note": "[C2A G33C]", "self-cleavage": 0.888}, {"variant": "AACGGAUGUGCCUUCCGGUCUGAUGAGUCCGUGAGGACGAAACAG", "note": "[C2A U12C]", "self-cleavage": 0.5}, {"variant": "AACGGAUGUGCGUUCCGGUCUGAUGAGUCCGUGAGGACGAAACAG", "note": "[C2A U12G]", "self-cleavage": 0.736}, {"variant": "AACGGAUGUGCAUUCCGGUCUGAUGAGUCCGUGAGGACGAAACAG", "note": "[C2A U12A]", "self-cleavage": 0.62}, {"variant": "AACGGAUGUGCUUUCCGGUCUGAUCAGUCCGUGAGGACGAAACAG", "note": "[C2A G25C]", "self-cleavage": 0.359}, {"variant": "AACGGAUGUGCUUUCCGGUCUGAUUAGUCCGUGAGGACGAAACAG", "note": "[C2A G25U]", "self-cleavage": 0.323}, {"variant": "AACGGAUGUGCUUUCCGGUCUGAUAAGUCCGUGAGGACGAAACAG", "note": "[C2A G25A]", "self-cleavage": 0.31}, {"variant": "AACGGAUGUGCUUUCCGGUCUGACGAGUCCGUGAGGACGAAACAG", "note": "[C2A U24C]", "self-cleavage": 0.733}, {"variant": "AACGGAUGUGCUUUCCGGUCUGAAGAGUCCGUGAGGACGAAACAG", "note": "[C2A U24A]", "self-cleavage": 0.929}, {"variant": "AACGGAUGUGCUUUCCGGUCUGAGGAGUCCGUGAGGACGAAACAG", "note": "[C2A U24G]", "self-cleavage": 0.644}, {"variant": "AACGGAUGUGCUUUCCGGUCUGAUGAAUCCGUGAGGACGAAACAG", "note": "[C2A G27A]", "self-cleavage": 0.438}, {"variant": "AACGGAUGUGCUUUCCGGUCUGAUGAUUCCGUGAGGACGAAACAG", "note": "[C2A G27U]", "self-cleavage": 0.32}, {"variant": "AACGGAUGUGCUUUCCGGUCUGAUGACUCCGUGAGGACGAAACAG", "note": "[C2A G27C]", "self-cleavage": 0.339}, {"variant": "AACGGAUGUGCUUUCCGGUCUGAUGAGUCCGUGAGAACGAAACAG", "note": "[C2A G36A]", "self-cleavage": 0.353}, {"variant": "AACGGAUGUGCUUUCCGGUCUGAUGAGUCCGUGAGCACGAAACAG", "note": "[C2A G36C]", "self-cleavage": 0.307}, {"variant": "AACGGAUGUGCUUUCCGGUCUGAUGAGUCCGUGAGUACGAAACAG", "note": "[C2A G36U]", "self-cleavage": 0.341}, {"variant": "AACGGAUGUGCUUUCCGGCCUGAUGAGUCCGUGAGGACGAAACAG", "note": "[C2A U19C]", "self-cleavage": 0.38}, {"variant": "AACGGAUGUGCUUUCCGGACUGAUGAGUCCGUGAGGACGAAACAG", "note": "[C2A U19A]", "self-cleavage": 0.308}, {"variant": "AACGGAUGUGCUUUCCGGGCUGAUGAGUCCGUGAGGACGAAACAG", "note": "[C2A U19G]", "self-cleavage": 0.381}, {"variant": "AACGGAUGUGCUUUCCGGUCUGAUGAGUCCGUGAUGACGAAACAG", "note": "[C2A G35U]", "self-cleavage": 0.457}, {"variant": "AACGGAUGUGCUUUCCGGUCUGAUGAGUCCGUGAAGACGAAACAG", "note": "[C2A G35A]", "self-cleavage": 0.402}, {"variant": "AACGGAUGUGCUUUCCGGUCUGAUGAGUCCGUGACGACGAAACAG", "note": "[C2A G35C]", "self-cleavage": 0.429}, {"variant": "AACGGAUGUGCUUUCCGGUCUGAUGAGCCCGUGAGGACGAAACAG", "note": "[C2A U28C]", "self-cleavage": 0.417}, {"variant": "AACGGAUGUGCUUUCCGGUCUGAUGAGGCCGUGAGGACGAAACAG", "note": "[C2A U28G]", "self-cleavage": 0.308}, {"variant": "AACGGAUGUGCUUUCCGGUCUGAUGAGACCGUGAGGACGAAACAG", "note": "[C2A U28A]", "self-cleavage": 0.394}, {"variant": "AACGGAUGUGCUUUCCGGUCUGAUGAGUCCGUGAGGACGAAACAU", "note": "[C2A G45U]", "self-cleavage": 0.417}, {"variant": "AACGGAUGUGCUUUCCGGUCUGAUGAGUCCGUGAGGACGAAACAA", "note": "[C2A G45A]", "self-cleavage": 0.393}, {"variant": "AACGGAUGUGCUUUCCGGUCUGAUGAGUCCGUGAGGACGAAACAC", "note": "[C2A G45C]", "self-cleavage": 0.42}, {"variant": "AACGGAUGUGCUUUCCGAUCUGAUGAGUCCGUGAGGACGAAACAG", "note": "[C2A G18A]", "self-cleavage": 0.883}, {"variant": "AACGGAUGUGCUUUCCGUUCUGAUGAGUCCGUGAGGACGAAACAG", "note": "[C2A G18U]", "self-cleavage": 1.21}, {"variant": "AACGGAUGUGCUUUCCGCUCUGAUGAGUCCGUGAGGACGAAACAG", "note": "[C2A G18C]", "self-cleavage": 0.922}, {"variant": "AACGGAAGUGCUUUCCGGUCUGAUGAGUCCGUGAGGACGAAACAG", "note": "[C2A U7A]", "self-cleavage": 0.457}, {"variant": "AACGGAGGUGCUUUCCGGUCUGAUGAGUCCGUGAGGACGAAACAG", "note": "[C2A U7G]", "self-cleavage": 0.518}, {"variant": "AACGGACGUGCUUUCCGGUCUGAUGAGUCCGUGAGGACGAAACAG", "note": "[C2A U7C]", "self-cleavage": 0.382}, {"variant": "AACGGAUGUGCUUUCCGGUCUUAUGAGUCCGUGAGGACGAAACAG", "note": "[C2A G22U]", "self-cleavage": 0.34}, {"variant": "AACGGAUGUGCUUUCCGGUCUAAUGAGUCCGUGAGGACGAAACAG", "note": "[C2A G22A]", "self-cleavage": 0.364}, {"variant": "AACGGAUGUGCUUUCCGGUCUCAUGAGUCCGUGAGGACGAAACAG", "note": "[C2A G22C]", "self-cleavage": 0.353}, {"variant": "AACGGAUGUGCUUGCCGGUCUGAUGAGUCCGUGAGGACGAAACAG", "note": "[C2A U14G]", "self-cleavage": 0.697}, {"variant": "AACGGAUGUGCUUCCCGGUCUGAUGAGUCCGUGAGGACGAAACAG", "note": "[C2A U14C]", "self-cleavage": 0.397}, {"variant": "AACGGAUGUGCUUACCGGUCUGAUGAGUCCGUGAGGACGAAACAG", "note": "[C2A U14A]", "self-cleavage": 0.509}, {"variant": "AACGGAUGUGCUUUCCGGUCCGAUGAGUCCGUGAGGACGAAACAG", "note": "[C2A U21C]", "self-cleavage": 0.402}, {"variant": "AACGGAUGUGCUUUCCGGUCGGAUGAGUCCGUGAGGACGAAACAG", "note": "[C2A U21G]", "self-cleavage": 0.291}, {"variant": "AACGGAUGUGCUUUCCGGUCAGAUGAGUCCGUGAGGACGAAACAG", "note": "[C2A U21A]", "self-cleavage": 0.351}, {"variant": "AACGGAUGCGCUUUCCGGUCUGAUGAGUCCGUGAGGACGAAACAG", "note": "[C2A U9C]", "self-cleavage": 0.695}, {"variant": "AACGGAUGGGCUUUCCGGUCUGAUGAGUCCGUGAGGACGAAACAG", "note": "[C2A U9G]", "self-cleavage": 0.44}, {"variant": "AACGGAUGAGCUUUCCGGUCUGAUGAGUCCGUGAGGACGAAACAG", "note": "[C2A U9A]", "self-cleavage": 0.563}, {"variant": "AACGGAUGUGCUAUCCGGUCUGAUGAGUCCGUGAGGACGAAACAG", "note": "[C2A U13A]", "self-cleavage": 1.08}, {"variant": "AACGGAUGUGCUCUCCGGUCUGAUGAGUCCGUGAGGACGAAACAG", "note": "[C2A U13C]", "self-cleavage": 1.05}, {"variant": "AACGGAUGUGCUGUCCGGUCUGAUGAGUCCGUGAGGACGAAACAG", "note": "[C2A U13G]", "self-cleavage": 0.86}]}]}
